Assay results: the supplement of paper PMC5998384

Assays:
HeLa Kyoto [1] = test: solubility in G1/S (NP-40 vs SDS abundance) (log2 ratio); higher = more soluble; settings: cell cycle stage: G1/S
HeLa Kyoto [2] = test: melting temperature (median over replicates), in situ; higher = more thermally stable
HeLa Kyoto [3] = test: solubility change mitosis vs G1/S (difference of NP-40 vs SDS log2 ratios) (log2 ratio difference); higher = more soluble in mitosis
HeLa Kyoto [4] = test: thermal stability score vs G1/S (z-score of summed log2 fold changes over temperatures); higher = more thermally stable than in G1/S
[5] = cell cycle stage: early G1 (4.5 h after nocodazole release)
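For melting temperature (median over replicates), in situ in this document: HeLa Kyoto cells synchronized by double thymidine or nocodazole block, proteins quantified by TMT10plex mass spectrometry, three independent biological replicates.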
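For solubility change mitosis vs G1/S (difference of NP-40 vs SDS log2 ratios) in this document: synchronized HeLa Kyoto cells (double thymidine block for G1/S, nocodazole release for mitosis), protein amounts in NP-40 versus SDS lysates quantified by mass spectrometry, three biological replicates.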
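For solubility in G1/S (NP-40 vs SDS abundance) in this document: HeLa Kyoto cells arrested at G1/S by double thymidine block, proteins quantified by TMT10plex mass spectrometry in mild NP-40 versus SDS extracts, three biological replicates.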
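For thermal stability score vs G1/S (z-score of summed log2 fold changes over temperatures) in this document: synchronized HeLa Kyoto cells, proteins quantified by TMT10plex mass spectrometry, three biological replicates, mitosis taken 0.5 h after nocodazole release, G1/S directly after double thymidine block.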

Sequence	solubility in G1/S (log2) (HeLa Kyoto [1])	melting temperature (HeLa Kyoto [2]; cell cycle stage: G1/S)	melting temperature (HeLa Kyoto [2]; cell cycle stage: mitosis)	solubility change mitosis (log2) (HeLa Kyoto [3])	thermal stability score (HeLa Kyoto [4]; [5])	thermal stability score (HeLa Kyoto [4]; cell cycle stage: mitosis)
MAAVPELLQQQEEDRSKLRSVSVDLNVDPSLQIDIPDALSERDKVKFTVHTKTTLPTFQSPEFSVTRQHEDFVWLHDTLIETTDYAGLIIPPAPTKPDFDGPREKMQKLGEGEGSMTKEEFAKMKQELEAEYLAVFKKTVSSHEVFLQRLSSHPVLSKDRNFHVFLEYDQDLSVRRKNTKEMFGGFFKSVVKSADEVLFTGVKEVDDFFEQEKNFLINYYNRIKDSCVKADKMTRSHKNVADDYIHTAACLHSLALEEPTVIKKYLLKVAELFEKLRKVEGRVSSDEDLKLTELLRYYMLNIEAAKDLLYRRTKALIDYENSNKALDKARLKSKDVKLAEAHQQECCQKFEQLSESAKEELINFKRKRVAAFRKNLIEMSELEIKHARNNVSLLQSCIDLFKNN [SNX5]	0.468	52.3 °C	50.9 °C	-0.0436	0.949	-0.872
MAAVSLRLGDLVWGKLGRYPPWPGKIVNPPKDLKKPRGKKCFFVKFFGTEDHAWIKVEQLKPYHAHKEEMIKINKGKRFQQAVDAVEEFLRRAKGKDQTSSHNSSDDKNRRNSSEERSRPNSGDEKRKLSLSEGKVKKNMGEGKKRVSSGSSERGSKSPLKRAQEQSPRKRGRPPKDEKDLTIPESSTVKGMMAGPMAAFKWQPTASEPVKDADPHFHHFLLSQTEKPAVCYQAITKKLKICEEETGSTSIQAADSTAVNGSITPTDKKIGFLGLGLMGSGIVSNLLKMGHTVTVWNRTAEKCDLFIQEGARLGRTPAEVVSTCDITFACVSDPKAAKDLVLGPSGVLQGIRPGKCYVDMSTVDADTVTELAQVIVSRGGRFLEAPVSGNQQLSNDGMLVILAAGDRGLYEDCSSCFQAMGKTSFFLGEVGNAAKMMLIVNMVQGSFMATIAEGLTLAQVTGQSQQTLLDILNQGQLASIFLDQKCQNILQGNFKPDFYLKYIQKDLRLAIALGDAVNHPTPMAAAANEVYKRAKALDQSDNDMSAVYRAYIH [GLYR1]	-1.74	53.3 °C	52.4 °C	1.01	1.22	-1.43
MAAVVAATRWWQLLLVLSAAGMGASGAPQPPNILLLLMDDMGWGDLGVYGEPSRETPNLDRMAAEGLLFPNFYSANPLCSPSRAALLTGRLPIRNGFYTTNAHARNAYTPQEIVGGIPDSEQLLPELLKKAGYVSKIVGKWHLGHRPQFHPLKHGFDEWFGSPNCHFGPYDNKARPNIPVYRDWEMVGRYYEEFPINLKTGEANLTQIYLQEALDFIKRQARHHPFFLYWAVDATHAPVYASKPFLGTSQRGRYGDAVREIDDSIGKILELLQDLHVADNTFVFFTSDNGAALISAPEQGGSNGPFLCGKQTTFEGGMREPALAWWPGHVTAGQVSHQLGSIMDLFTTSLALAGLTPPSDRAIDGLNLLPTLLQGRLMDRPIFYYRGDTLMAATLGQHKAHFWTWTNSWENFRQGIDFCPGQNVSGVTTHNLEDHTKLPLIFHLGRDPGERFPLSFASAEYQEALSRITSVVQQHQEALVPAQPQLNVCNWAVMNWAPPGCEKLGKCLTPPESIPKKCLWSH [GALNS]	0.789	55.5 °C	57.8 °C	-0.0581	-4.28	-1.14
MAAVVVAAAGGAGPAVLQVAGLYRGLCAVRSRALGLGLVSPAQLRVFPVRPGSGRPEGGADSSGVGAEAELQANPFYDRYRDKIQLLRRSDPAAFESRLEKRSEFRKQPVGHSRQGDFIKCVEQKTDALGKQSVNRGFTKDKTLSSIFNIEMVKEKTAEEIKQIWQQYFAAKDTVYAVIPAEKFDLIWNRAQSCPTFLCALPRREGYEFFVGQWTGTELHFTALINIQTRGEAAASQLILYHYPELKEEKGIVLMTAEMDSTFLNVAEAQCIANQVQLFYATDRKETYGLVETFNLRPNEFKYMSVIAELEQSGLGAELKCAQNQNKT [ATPAF1]	0.199	51.4 °C	51.5 °C	-0.00439	1.88	1.83
MAAWGRRRLGPGSSGGSARERVSLSATDCYIVHEIYNGENAQDQFEYELEQALEAQYKYIVIEPTRIGDETARWITVGNCLHKTAVLAGTACLFTPLALPLDYSHYISLPAGVLSLACCTLYGISWQFDPCCKYQVEYDAYKLSRLPLHTLTSSTPVVLVRKDDLHRKRLHNTIALAALVYCVKKIYELYAV [TMEM11]	-0.0105	52.2 °C	51.4 °C	-0.0939	-0.391	-1.34
MAAYLQWRRFVFFDKELVKEPLSNDGAAPGATPASGSAASKFLCLPPGITVCDSGRGSLVFGDMEGQIWFLPRSLQLTGFQAYKLRVTHLYQLKQHNILASVGEDEEGINPLVKIWNLEKRDGGNPLCTRIFPAIPGTEPTVVSCLTVHENLNFMAIGFTDGSVTLNKGDITRDRHSKTQILHKGNYPVTGLAFRQAGKTTHLFVVTTENVQSYIVSGKDYPRVELDTHGCGLRCSALSDPSQDLQFIVAGDECVYLYQPDERGPCFAFEGHKLIAHWFRGYLIIVSRDRKVSPKSEFTSRDSQSSDKQILNIYDLCNKFIAYSTVFEDVVDVLAEWGSLYVLTRDGRVHALQEKDTQTKLEMLFKKNLFEMAINLAKSQHLDSDGLAQIFMQYGDHLYSKGNHDGAVQQYIRTIGKLEPSYVIRKFLDAQRIHNLTAYLQTLHRQSLANADHTTLLLNCYTKLKDSSKLEEFIKKKSESEVHFDVETAIKVLRQAGYYSHALYLAENHAHHEWYLKIQLEDIKNYQEALRYIGKLPFEQAESNMKRYGKILMHHIPEQTTQLLKGLCTDYRPSLEGRSDREAPGCRANSEEFIPIFANNPRELKAFLEHMSEVQPDSPQGIYDTLLELRLQNWAHEKDPQVKEKLHAEAISLLKSGRFCDVFDKALVLCQMHDFQDGVLYLYEQGKLFQQIMHYHMQHEQYRQVISVCERHGEQDPSLWEQALSYFARKEEDCKEYVAAVLKHIENKNLMPPLLVVQTLAHNSTATLSVIRDYLVQKLQKQSQQIAQDELRVRRYREETTRIRQEIQELKASPKIFQKTKCSICNSALELPSVHFLCGHSFHQHCFESYSESDADCPTCLPENRKVMDMIRAQEQKRDLHDQFQHQLRCSNDSFSVIADYFGRGVFNKLTLLTDPPTARLTSSLEAGLQRDLLMHSRRGT [VPS11]	-0.142	51.3 °C	49.9 °C	-0.106	-0.498	-0.231
MACAEFSFHVPSLEELAGVMQKGLKDNFADVQVSVVDCPDLTKEPFTFPVKGICGKTRIAEVGGVPYLLPLVNQKKVYDLNKIAKEIKLPGAFILGAGAGPFQTLGFNSEFMPVIQTESEHKPPVNGSYFAHVNPADGGCLLEKYSEKCHDFQCALLANLFASEGQPGKVIEVKAKRRTGPLNFVTCMRETLEKHYGNKPIGMGGTFIIQKGKVKSHIMPAEFSSCPLNSDEEVNKWLHFYEMKAPLVCLPVFVSRDPGFDLRLEHTHFFSRHGEGGHYHYDTTPDIVEYLGYFLPAEFLYRIDQPKETHSIGRD [C11ORF54]	0.72	55.7 °C	56.3 °C	-0.126	-2.98	-4.1
MADAWEEIRRLAADFQRAQFAEATQRLSERNCIEIVNKLIAQKQLEVVHTLDGKEYITPAQISKEMRDELHVRGGRVNIVDLQQVINVDLIHIENRIGDIIKSEKHVQLVLGQLIDENYLDRLAEEVNDKLQESGQVTISELCKTYDLPGNFLTQALTQRLGRIISGHIDLDNRGVIFTEAFVARHKARIRGLFSAITRPTAVNSLISKYGFQEQLLYSVLEELVNSGRLRGTVVGGRQDKAVFVPDIYSRTQSTWVDSFFRQNGYLEFDALSRLGIPDAVSYIKKRYKTTQLLFLKAACVGQGLVDQVEASVEEAISSGTWVDIAPLLPTSLSVEDAAILLQQVMRAFSKQASTVVFSDTVVVSEKFINDCTELFRELMHQKAEKEMKNNPVHLITEEDLKQISTLESVSTSKKDKKDERRRKATEGSGSMRGGGGGNAREYKIKKVKKKGRKDDDSDDESQSSHTGKKKPEISFMFQDEIEDFLRKHIQDAPEEFISELAEYLIKPLNKTYLEVVRSVFMSSTTSASGTGRKRTIKDLQEEVSNLYNNIRLFEKGMKFFADDTQAALTKHLLKSVCTDITNLIFNFLASDLMMAVDDPAAITSEIRKKILSKLSEETKVALTKLHNSLNEKSIEDFISCLDSAAEACDIMVKRGDKKRERQILFQHRQALAEQLKVTEDPALILHLTSVLLFQFSTHSMLHAPGRCVPQIIAFLNSKIPEDQHALLVKYQGLVVKQLVSQSKKTGQGDYPLNNELDKEQEDVASTTRKELQELSSSIKDLVLKSRKSSVTEE [UFL1]	-0.013	50 °C	49.8 °C	-0.0952	1.14	2.59
MADDAGLETPLCSEQFGSGEARGCRAAADGSLQWEVGGWRWWGLSRAFTVKPEGRDAGEVGASGAPSPPLSGLQAVFLPQGFPDSVSPDYLPYQLWDSVQAFASSLSGSLATQAVLLGIGVGNAKATVSAATATWLVKDSTGMLGRIVFAWWKGSKLDCNAKQWRLFADILNDVAMFLEIMAPVYPICFTMTVSTSNLAKCIVSVAGGATRAALTVHQARRNNMADVSAKDSSQETLVNLAGLLVSLLMLPLVSGCPGFSLGCFFFLTALHIYANYRAVRALVMETLNEGRLRLVLKHYLQRGEVLDPTAANRMEPLWTGFWPAPSLSLGVPLHRLVSSVFELQQLVEGHQESYLLCWDQSQNQVQVVLNQKAGPKTILRAATHGLMLGALQGDGPLPAELEELRNRVRAGPKKESWVVVKETHEVLDMLFPKFLKGLQDAGWKTEKHQLEVDEWRATWLLSPEKKVL [C16ORF58]	-0.224	53.7 °C	53.8 °C	-0.031	-0.365	0.0232
MADEAALALQPGGSPSAAGADREAASSPAGEPLRKRPRRDGPGLERSPGEPGGAAPEREVPAAARGCPGAAAAALWREAEAEAAAAGGEQEAQATAAAGEGDNGPGLQGPSREPPLADNLYDEDDDDEGEEEEEAAAAAIGYRDNLLFGDEIITNGFHSCESDEEDRASHASSSDWTPRPRIGPYTFVQQHLMIGTDPRTILKDLLPETIPPPELDDMTLWQIVINILSEPPKRKKRKDINTIEDAVKLLQECKKIIVLTGAGVSVSCGIPDFRSRDGIYARLAVDFPDLPDPQAMFDIEYFRKDPRPFFKFAKEIYPGQFQPSLCHKFIALSDKEGKLLRNYTQNIDTLEQVAGIQRIIQCHGSFATASCLICKYKVDCEAVRGDIFNQVVPRCPRCPADEPLAIMKPEIVFFGENLPEQFHRAMKYDKDEVDLLIVIGSSLKVRPVALIPSSIPHEVPQILINREPLPHLHFDVELLGDCDVIINELCHRLGGEYAKLCCNPVKLSEITEKPPRTQKELAYLSELPPTPLHVSEDSSSPERTSPPDSSVIVTLLDQAAKSNDDLDVSESKGCMEEKPQEVQTSRNVESIAEQMENPDLKNVGSSTGEKNERTSVAGTVRKCWPNRVAKEQISRRLDGNQYLFLPPNRYIFHGAEVYSDSEDDVLSSSSCGSNSDSGTCQSPSLEEPMEDESEIEEFYNGLEDEPDVPERAGGAGFGTDGDDQEAINEAISVKQEVTDMNYPSNKS [SIRT1]	-0.0978	50.2 °C	50.1 °C	-0.0419	0.328	2.02
